# Experimental data published in patent US20240294670A1 (University of Texas, published 2024).
# Key:
# recombinant human CHI3L1 = biological target: T1, recombinant human CHI3L1 (human, UniProt P36222 22-383); test: ELISA: human CHI3L1 coated on the plate, B cell culture supernatant 100 ul/well, A450
# T1 construct: His-tagged recombinant protein (Sino Biological 11227-H08H, or in-house HEK293 protein with 6xHIS-tag and avi-tag); also called hCHI3L1; hChi3l1
# Experimental: (§1) FIG. 7. The ELISA binding of the supernatant antibody to the human CHI3L1. (hCHI3L1), and mouse CHI3L1 (mCHI3L1). The CHI3L1 protein was coated on maxi-sorp 96-well plates, cell culture supernatant (100 ul/well) was used for binding on the antigen coated plate. Binding signals (A450 nm) are shown in Y-axis and CHI3L1 mAbs are shown on X-axis.
# (§2) Binding affinity of anti-CHI3L1 monoclonal antibodies to the CHI3L1 protein using ELISA method. Binding of CHI3L1 by monoclonal antibodies was first screened by ELISA using supernatants collected from the B cell cultures and cross reactivity to mouse CHI3L1 protein was determined (FIG. 7).
# recombinant mouse CHI3L1 [1] = biological target: T2, recombinant mouse CHI3L1 (mouse, UniProt Q61362 30-389, limits assumed); test: BLI (Octet), mAb on protein A sensor, CHI3L1 in solution, 1:1 fit
# T2 construct: His-tagged; also called mCHI3L1; mChi3l1
# T2 sequence (Q61362 30-389 limits assumed): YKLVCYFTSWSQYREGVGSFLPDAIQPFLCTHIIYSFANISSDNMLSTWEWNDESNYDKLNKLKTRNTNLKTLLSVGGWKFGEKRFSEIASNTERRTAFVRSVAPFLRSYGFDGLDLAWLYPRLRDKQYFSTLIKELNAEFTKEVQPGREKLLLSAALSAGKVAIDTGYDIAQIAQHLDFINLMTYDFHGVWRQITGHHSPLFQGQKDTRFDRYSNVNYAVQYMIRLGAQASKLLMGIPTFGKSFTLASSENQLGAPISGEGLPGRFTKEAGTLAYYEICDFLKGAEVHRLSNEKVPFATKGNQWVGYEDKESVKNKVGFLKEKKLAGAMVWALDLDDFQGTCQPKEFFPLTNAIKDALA
# Experimental: FIG. 8. Kinetic binding sensorgrams collected on Octet instrument for determination of kon and koff rates for each CHI3L1 antibody.
# Binding affinity of anti-CHI3L1 monoclonal antibodies determined using Bio-layer interferometry (BLI), a sensor-based Octet instrument. […] Following by kinetics buffer washing to baseline, the loaded biosensors were exposed to a series of recombinant CHI3L1 protein at 0.1-200 nM range and background subtraction was used to correct for any background from sensor drifting. All experiments were performed with shaking at 1,000 rpm. Background wavelength shifts were measured from reference biosensors that were loaded with antibody and followed with buffer without antigen. ForteBio's data analysis software was used to fit the data to a 1:1 binding model to extract an association rate and dissociation rate. The KD was calculated using the ratio of koff/kon and the estimated values of KD for CHI3L1 mAbs in Table C.
# recombinant mouse CHI3L1 [2] = biological target: T2, recombinant mouse CHI3L1; test: ELISA: mouse CHI3L1 coated on the plate, B cell culture supernatant 100 ul/well, A450
# Experimental: as §1, §2
# T1 sequence (P36222 22-383 limits assumed): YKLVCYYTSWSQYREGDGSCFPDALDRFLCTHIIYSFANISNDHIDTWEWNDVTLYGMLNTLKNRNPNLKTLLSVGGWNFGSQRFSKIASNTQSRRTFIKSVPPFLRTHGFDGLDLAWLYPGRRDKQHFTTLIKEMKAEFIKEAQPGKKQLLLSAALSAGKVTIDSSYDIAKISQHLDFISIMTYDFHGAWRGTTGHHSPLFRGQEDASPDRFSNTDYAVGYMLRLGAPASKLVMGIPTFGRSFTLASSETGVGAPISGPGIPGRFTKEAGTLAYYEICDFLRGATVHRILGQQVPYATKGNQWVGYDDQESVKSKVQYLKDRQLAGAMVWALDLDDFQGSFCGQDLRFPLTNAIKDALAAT
binding result (recombinant human CHI3L1),Kd (recombinant mouse CHI3L1 [1]),koff (recombinant mouse CHI3L1 [1]),kon (recombinant mouse CHI3L1 [1]),binding result (recombinant mouse CHI3L1 [2]),Binder
no binding,2.81 nM,0.000201 s⁻¹,71500 M⁻¹ s⁻¹,–,"anti-CHI3L1 monoclonal antibody C61 (antibody, V domains shown, Rabbit mAb from single B cells, expressed as full length IgG in HEK293) VH: QEQLEESGGDLVKPEGSLTLTCTASGFSFSSSYWICWVRQAPGKGLEWIACIYAGGSGSTYYASWAKGRFTISKTSSTTVTLQMTSLTAADAATYFCARDGVSGSGWFFNLWGPGTLVTVSS VL: DVVMTQTPASVSEPVGGTVTIKCQASQSISSYLTWYQQKPGQPPKLLIYKASTLASGVSSRFKGSGSGTEFTLTISDLECADAATYYCQSSYYGPSDVDFSPFGGGTEVEIK"
no binding,4.09 nM,0.000223 s⁻¹,54500 M⁻¹ s⁻¹,–,"anti-CHI3L1 monoclonal antibody C57 (antibody, V domains shown, Rabbit mAb from single B cells, expressed as full length IgG in HEK293) VH: QSVEESGGGLVQPGGSLTLTCKASGFSFSSGYWMCWVRQAPGKGLEWIACIGASYGGTFYASWAKGRFTISKTSSTTVTLQMTSLTAADTATYFCTRDDGGLDNPNLWGPGTLVTVSS VL: DPVLTQTPASVEAAVGGTVTIKCQASQSIGSILAWYQQKPGQPPHLLIYAAAKLASGVPSRFKGSGSGTQFTLTISGVECDDAATYYCQSYYYSVTTSYSNSFGGGTEVVVK"
no binding,0.254 nM,2.71e-05 s⁻¹,107000 M⁻¹ s⁻¹,–,"anti-CHI3L1 monoclonal antibody C64 (antibody, V domains shown, Rabbit mAb from single B cells, expressed as full length IgG in HEK293) VH: QSVEESGGDLVKPGASLTLTCTASGFSFSNNYWICWIRQAPGKGLEWIACIYAGDTGTAYYANWAKGRFTISKTSSTTVTLQMTSLTAADTATYFCARDGDGVGNGGTFALWGPGTLVTVSS VL: ALVMTQTPASVEAAVGGTVTIRCQASERIGNALAWYQQKPGQPPKLLIYQTSKLTSGVPSRFKGSGSGTEHTLTISDLECADAATYYCQSYYYTGSISYEFGGGTKVVVE"
binds,–,–,–,no binding,"anti-CHI3L1 monoclonal antibody C21 (antibody, V domains shown, Rabbit mAb) VH: QSVKESGGGLVQPEGSLTLTCTASGFSFSSSYYMCWVRQAPGKGLEWIACIYNGDGSTYYASWAKGRFTISKTSSTTVTLQMTSLTAADTATYFCARDADYAGVVLNLWGPGTLVTVSS VL: AQVLTQTPASVEAAVGGTVTIKCQASESIGNALAWYQQKPGQPPKLLIYVASYLASGVSSRFKGSRSGTEYTLTISDLECVDAATYYCQCTWYGNVYLAFGGGTEVVVK"
binds,–,–,–,no binding,"anti-CHI3L1 monoclonal antibody C25 (antibody, V domains shown, Rabbit mAb) VH: QSVEESGGDLVKPGASLTLTCTASGFSFSSSYYMCWVRQAPGKGLEWIACIYAGSSGSTWYASWAKGRFTISITSSTTVTLQMTSLTAADTATYFCARDRYGGGSYYIPYYFDLWGPGTLVTVSS VL: ALVMTQTPSPVSAAVGGTVTINCQASQNIYVDSYLAWYQQKSGQPPKLLIYYASSLASGVPSRFSGSGSGTQFTLTISDLECDDAATYYCAGGYSADSDNAFGGGTEVVVK"
no binding,0.799 nM,0.00011 s⁻¹,138000 M⁻¹ s⁻¹,–,"anti-CHI3L1 monoclonal antibody C68 (antibody, V domains shown, Rabbit mAb from single B cells, expressed as full length IgG in HEK293) VH: QSVEESGGDLVKPGASLTLTCTASGFSFSGPYWISWVRQAPGRGLEWIASIGARSSGSTHYASWAKGRFTISKTASTTVTLQMTSLTAADTATYFCARSYPAYAGDGYALYYFNLWGPGTLVTVSS VL: DVVMTQTPASVSAAVGGTVTIKCQASEDIYSLLAWYQQKPGQPPKFLIYDASDLASGVPSRFSGSGSGTEYTLTINDLKCDDAATYYCQGGYYSGDGTDIPFGGGTELEIL"
binds,–,–,–,no binding,"anti-CHI3L1 monoclonal antibody C23 (antibody, V domains shown, Rabbit mAb) VH: QSVKESGGGLVQPGGSLTLSCKASGFDFSSYYMSWVRQAPGKGLEWIGIIYGGKGTTDYASWVNGRFTISSDNAQNTVDLQMNSLTAADTATYFCARDYVSSSGYYMDLWGPGTLVTVSS VL: ALVMTQTPASVSAAVGGTVTIKCQASEDIYSLLAWYQQKPGQPPKLLIYDASDLASGVPSRFSGSGSGTEYTLTISDLECDDAATYYCQGGYYSGSPTDNSFGGGTKVVVE"

# The remaining lines, values behind:
Binder,binding result (recombinant human CHI3L1),Kd (recombinant mouse CHI3L1 [1]),koff (recombinant mouse CHI3L1 [1]),kon (recombinant mouse CHI3L1 [1]),binding result (recombinant mouse CHI3L1 [2])
"anti-CHI3L1 monoclonal antibody C27 (antibody, V domains shown, Rabbit mAb) VH: QSVEESGGGLVKPEGSLTLTCTASGFSFSYRYYMCWVRQAPGKGLEWIGCIDNGDGDTYYASWVNGRFTISKASSTTVTLQMTSLTAADTATYFCARGSSGYNGFNFWGPGTLVTVSS VL: ALVMTQTPASVSAAVAGTVTIKCQASQSIGSYLAWYQQKPGQPPKLLIYATSILASGVSSRLKGSRSGTEYTLTISDLECADAATYYCQCGYYDSNYGGAFGGGTEVVVK",binds,–,–,–,no binding
"anti-CHI3L1 monoclonal antibody C18 (antibody, V domains shown, Rabbit mAb) VH: KQLVEESGGDLVRPEGSLTLTCKGSGFDFSRNAMCWVRQAPGKGLEWIACIYVGSGGGTYYATWAKGRFTISKTSSTTVTLQMTSLTAADTATYFCAGSPYSGYGYFNLWGPGTLVTVSS VL: DPMLTQTPASVSEPVGGTVTIKCQASQSISTALAWYQQKPGQPPKLLIYRASILASGVPSRFKGSGSGTEFTLTISDLECADAATYYCQSYYDSSAGNTFGGGTKVEIK",binds,–,–,–,no binding
"anti-CHI3L1 monoclonal antibody C65 (antibody, V domains shown, Rabbit mAb from single B cells, expressed as full length IgG in HEK293) VH: QSVEESGGGLVQPEGSLTLTCTASGFSFSSSYYMCWVRQAPGKGLEWIACIFTGGVSTYYASWVNGRFTISKTSSTTVTLQMTSLTAADTATYFCARTYTAGFTGDNYFNLWGPGTLVTVSS VL: AQVLTQTPASVEAAVGGTVTIKCQASQSISSYLAWYQQKPGQPPKLLIYRASTLASGVPSRFKGSGSGTEFTLTISDLECADAATYYCQSDYYSSSSNNGFVFGGGTEVVVK",–,6 nM,0.000756 s⁻¹,126000 M⁻¹ s⁻¹,–
"anti-CHI3L1 monoclonal antibody C15 (antibody, V domains shown, Rabbit mAb) VH: QSVKESGGGLVQPEGSLTLTCTASGFDFSSNAMCWVRQAPGKGPEWIACIYNGDASTYYASWAKGRSTISKTSSTTVTLQMTSLTAADTATYFCARCFNRFYRGDLWGPGTLVTVSS VL: DPMLTQTPSSVSAAVGGTVSISCQSSQSVYDNDWLSWYQQKPGQPPKLLIYDASKLASGVPSRFKGSGSGTQFTLTISDVQCDAAATYYCAGDYINTIDNAFGGGTEVVVK",binds,–,–,–,binds
"anti-CHI3L1 monoclonal antibody C17 (antibody, V domains shown, Rabbit mAb) VH: QSVKESGGDLVKPGASLTLTCTASGFSFSSSYWICWVRQAPGKGLEWIACIDAGSSESTYYASWAKGRFTISKTSSTTVTLQMTSLTAADTATYFCARDSRVVAGVGMYLNLWGPGTLVTVSS VL: AIKMTQTPASVEVAVGGTVTIKCQASQSIGIYLAWYQQKPGQPPKLLIYDASDLASGVPSRFRGSGSGTQFTLTISGVECADAATYYCQQGDTIYNVDNTFGGGTKVVVE",binds,–,–,–,no binding
"C22 (antibody, V domains shown, also called anti-CHI3L1 monoclonal antibody C22) VH: QLVEESGGGLVKPGAPLTLTCTLSGFSFSSGYYMCWVRQAPGKGLEWIACIYGAVSDRIYFASWAKGRFTMSRPSSTTVTLQMTSLTAADTATYFCARDSYSGSTYYRSYYFNLWGPGTLVTVSS VL: DPVLTQTPASVSAAVGGTVTISCQSNENIYVDKYLSWYQQKPGQPPKGLIYSASTLASGVPSRFRGSGSGTQFTLTISDVQCDDAATYYCAGSFSSSDSCAFGGGTEVVVK",binds,–,–,–,no binding
"anti-CHI3L1 monoclonal antibody C19 (antibody, V domains shown, Rabbit mAb) VH: QEQLVEYGGDLVQPEGSLTLTCTASGFTISSTFYMGWVRQAPGKGLEWIGDMHVGSATTTYYASWAKGRFTISKPSSTTVTLQMTSLTAADTATYFCARYVNSGYYMDSWGPGTLVTVSS VL: AQVLTQTPASVEVAVGGTVTIKCQASQTISNLLAWYQQKPGQPPKLLIYDASTLAYGVSSRFSGSGSGTQFTLTISGVQCADAATYYCQQGWSSSNVDNVFGGGTKLEIK",binds,–,–,–,no binding
"anti-CHI3L1 monoclonal antibody C55 (antibody, V domains shown, Rabbit mAb from single B cells, expressed as full length IgG in HEK293; also called clone 55) VH: QSVKESGGDLVKPGASLTLTCTASGFSFSSDYDIYWVRQAPGKGLEWIAWIDGGSSGEIYANWAKGRFTISKTSSTTVTLQMTSLTAADTAAYFCARCIWSHNYYDLWGPGTLVTVSS VL: AIKMTQTPSSVSAAVGGTVTINCQASEDIENYLAWYQQKPGQPPKLLIYRASTLASGVSSRFKGSGSGTEFTLTISDLECADAATYWCQQGYSGSNVDNFFGGGTKVVVE",–,1.22 nM,0.000141 s⁻¹,115000 M⁻¹ s⁻¹,–
"anti-CHI3L1 monoclonal antibody C30 (antibody, V domains shown, Rabbit mAb) VH: QEQLVESGGGLVTPGGTLTLTCTASGFDFSSYYYMCWVRQAPGKGLELIAAIDTGSGETYYASWANGRFTISKTSSTTVTLQMTSLTAADTATYFCARDPYFGTNLWGPGTLVTVSS VL: DPMLTQTPSPVSAAVGGTVTITCQASQSVYNNNYLSWFQQKPGQPPKLLIYKASILASGVPSRFKGSGSGTQFTLTISDLQCDDAATYYCLGGYSSPSDDAFGGGTKVVVE",binds,–,–,–,–
